The data set can be described thus: protein stability index of a GFP-peptide fusion (GPS, HEK-293T) (PSI 1-6); higher = more stable.
Where [1] appears, read: treatment: DMSO, c terminus: a fixed tail appended.
Where [2] appears, read: treatment: MLN4924 1 uM, 8 h, c terminus: a fixed tail appended.

± gives the standard deviation.
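Further: 24-mer peptide tiles fused after GFP, lentivirally expressed, FACS-sorted into six equal bins by GFP/DsRed ratio, decoded by Illumina sequencing, PSI is the read-weighted mean bin number.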

For CSRTTGYQILTLEKDQEQVVMNLD [GMCL1], the protein stability index reads like this: under setting [1], 3.6 ± 0.52; under setting [2], 3.43 ± 0.34.

Regarding CTDKENALKLFPVQPCSAVHLLLK [FAM189A2], the protein stability index under setting [1] is 2.58 ± 0.23 and the protein stability index under setting [2] is 2.7 ± 0.43.

Sequence CTGITRLQRWCRAKHMGLEPPPEV [POLD4] displayed a protein stability index under setting [1] of 2.49 ± 0.31 and a protein stability index under setting [2] of 2.96 ± 0.31.

As for CTLETTVHASGWNKILVPLVLLRQ [BCL2L13], the protein stability index came to 2.61 ± 0.38 under setting [1] and 2.38 ± 0.43 under setting [2].

Take CVLTTPCLTQSTAAPAVRASSSPV [SLA]: the protein stability index worked out at 3.47 ± 0.13 under setting [1] and 3.49 ± 0.14 under setting [2].

As to CVNGDVDKPSEPASEEGSESEGSE [SMG5], the protein stability index under setting [1] is 5.58 ± 0.23 and the protein stability index under setting [2] was found to be 5.51 ± 0.14.

Regarding DAMQLNDKWQGLCWPMMDFLRCVT [CMTM3], the protein stability index by setting is: under setting [1], 2.22 ± 0.38; under setting [2], 2.26 ± 0.14.

DEEVQRKREMILKRKEEEALKDSL [VDR]: the protein stability index under setting [1] amounted to 5.35 ± 0.22 and the protein stability index under setting [2] worked out at 5.5 ± 0.19.

As to DEGASAGQGPKPEADSQEQGHPQT [GAGE1], the protein stability index came out at 5.71 ± 0.1 under setting [1] and 5.48 ± 0.37 under setting [2].

On to DEKYGVPSLEELGFDTDGLSSAVW [CRY1], for which the protein stability index was determined as 3.65 ± 0.22 under setting [1] and 3.86 ± 0.45 under setting [2].

As for DFPEEDDPTNWLRCYYYEDTISTI [NCF4], the protein stability index runs as follows: under setting [1], 3.28 ± 0.25; under setting [2], 3.2 ± 0.22.

DGGLLSGNEKITMQNLNDRLASYL [KRT15]: the protein stability index is 3.12 ± 0.16 under setting [1] and 3.09 ± 0.2 under setting [2].

Regarding DGLFDNMPDYMILQELKKLKNSNY [PPTC7], the protein stability index under setting [1] stood at 2.57 ± 0.3 and the protein stability index under setting [2] worked out at 2.85 ± 0.64.

Regarding DHEHEEADLELSLPECLEYEEEFD [GNAS], the protein stability index is, setting by setting: under setting [1], 5.55 ± 0.46; under setting [2], 5.53 ± 0.22.

As for DHGVPEHPTPFLAFLRRVKTCNPP [PTPRD], the protein stability index reads like this: under setting [1], 3.16 ± 0.042; under setting [2], 3.16 ± 0.25.

DHYQRVKREREKEDIALNKHRSRR [RHOBTB1]: the protein stability index is, setting by setting: under setting [1], 4.23 ± 0.25; under setting [2], 4.38 ± 0.21.

DIALNKHRSRRKWCFWNSSPAVA [RHOBTB1]: the protein stability index reads like this: (treatment: DMSO, c terminus: native) 2.46 ± 1.4; (treatment: MLN4924 1 uM, 8 h, c terminus: native) 2.87 ± 1.8.

Regarding DIMETSGWKSMIQSHPHLVAEAFR [SPOPL], the protein stability index under setting [1] is 2.49 ± 0.37 and the protein stability index under setting [2] stood at 2.68 ± 0.54.

As to DIWSTACMAFELATGDYLFEPHSG [SRPK2], the protein stability index runs as follows: under setting [1], 3.2 ± 0.24; under setting [2], 3.39 ± 0.47.

Sequence DKERFTTLVQDLANAFQQEAQTSG [CHIT1] displayed a protein stability index under setting [1] of 4.19 ± 0.066 and a protein stability index under setting [2] of 4.26 ± 0.12.

On to DKKKELQELNELFKPVVAAQKISK [ZC3H15], for which the protein stability index reads like this: under setting [1], 4.39 ± 0.32; under setting [2], 4.43 ± 0.17.

As to DKRGETTSASLLNAGLSHTEYQIV [SLC2A12], the protein stability index stood at 3.69 ± 0.17 under setting [1] and 3.91 ± 0.26 under setting [2].

For the sequence DLFKSFPGPMDWVPRYTGVAPQDQ [ADAMTS4], the protein stability index runs as follows: under setting [1], 3.19 ± 0.29; under setting [2], 3.21 ± 0.2.

Take DLHCVLVTNPHSSQWKDPALSQLI [GADD45A]: the protein stability index under setting [1] was 2.23 ± 0.26 and the protein stability index under setting [2] came to 2.3 ± 0.16.

Take DLINKMLTINPAKRITASEALKHP [CAMK2D]: the protein stability index reads like this: under setting [1], 2.49 ± 0.31; under setting [2], 2.64 ± 0.32.

In turn, DLRKHRRKLLSPVSREENREDKAT [PPFIA4] had a protein stability index under setting [1] of 4.52 ± 0.18 and a protein stability index under setting [2] of 4.84 ± 0.3.

As to DMEKILEIIRVILKLYEQWKNFDE [CCNC], the protein stability index by setting is: under setting [1], 2.47 ± 0.2; under setting [2], 2.66 ± 0.42.

For the sequence DMWSIGVITYILLSGASPFLGETK [DAPK3], the protein stability index runs as follows: under setting [1], 3.15 ± 0.3; under setting [2], 2.97 ± 0.36.

On to DNEGNSALHIIVQYNRPISDFLTL [FEM1B], for which the protein stability index is, setting by setting: under setting [1], 3.06 ± 0.9; under setting [2], 2.33 ± 0.17.

Turning to DNPPTFSQVSYFTYIPENNARGAS [PCDHGA10], the protein stability index reads like this: under setting [1], 3.44 ± 0.46; under setting [2], 3.49 ± 0.49.

Sequence DPDINMHPFFFALGKILSVELGKQ [FADS1] had a protein stability index under setting [1] of 2.46 ± 0.61 and a protein stability index under setting [2] of 2.38 ± 0.59.

As to DPDPDPEPAGGSRPGPAVPGLRAL [CMTM3], the protein stability index was determined as 4.92 ± 0.28 under setting [1] and 4.68 ± 0.11 under setting [2].

Regarding DPERRPSAMALVKHSVLLSASRKS [WEE1], the protein stability index was 4.15 ± 0.3 under setting [1] and 4.05 ± 0.36 under setting [2].

Consider DPLLLILSFLDYRDLINCCYVSRR [FBXO3], for which the protein stability index reads like this: under setting [1], 2.91 ± 0.74; under setting [2], 3.05 ± 0.82.

Take DPSGKGKGKAGRVDLVDESGYVSG [TPPP]: the protein stability index was 5.1 ± 0.42 under setting [1] and 5.27 ± 0.16 under setting [2].

Consider DQAGGEGKHITVFKTYISPWERAM [MYOZ1], for which the protein stability index by setting is: under setting [1], 2.91 ± 0.27; under setting [2], 2.84 ± 0.39.

For the sequence DQQNPTLGETPENSNLEEPLNPKP [ZNF449], the protein stability index by setting is: under setting [1], 5.6 ± 0.19; under setting [2], 5.29 ± 0.23.

For the sequence DQSKLAGLLDLNNAILQLVKKYKS [ESRRG], the protein stability index was found to be 2.4 ± 0.26 under setting [1] and 2.31 ± 0.5 under setting [2].

Regarding DRSDYFAAWGARVFSFGKHYWELD [TRIM43], the protein stability index was 2.14 ± 0.44 under setting [1] and 2.15 ± 0.57 under setting [2].

On to DSSIIRTTQDLFAINRDTAFPGAS [RHOBTB3], for which the protein stability index runs as follows: under setting [1], 3.91 ± 0.23; under setting [2], 3.94 ± 0.23.

For the sequence DSSMILTVPGQALACGSNRFNKLG [NEK8], the protein stability index is 3.29 ± 0.17 under setting [1] and 3.2 ± 0.22 under setting [2].

Turning to DSVLERWVNDPQRMDKRTLALLVL [GOLPH3L], the protein stability index is, setting by setting: under setting [1], 2.21 ± 0.28; under setting [2], 2.31 ± 0.28.

Take DTDRDGYISHRELGDCMRTLGYMP [CABP4]: the protein stability index reads like this: under setting [1], 3.41 ± 0.22; under setting [2], 3.47 ± 0.26.

For DTHSWKSELQREMEALAAETNLLL [TEKT4], the protein stability index under setting [1] came to 3.25 ± 0.33 and the protein stability index under setting [2] is 3.59 ± 0.44.

Consider DTLADDVPGHQTPSDLDQFSDSSL [LURAP1L], for which the protein stability index runs as follows: under setting [1], 5.44 ± 0.2; under setting [2], 5.366 ± 0.053.

With DVGCISVTVPSMLSRLLSRKRAVP [OR3A1], the protein stability index under setting [1] was 2.71 ± 0.26 and the protein stability index under setting [2] turned out to be 2.85 ± 0.19.

Turning to DVLNDAIFDEDHDEMVIVKDIDMF [GCH1], the protein stability index came to 3.5 ± 0.15 under setting [1] and 3.62 ± 0.2 under setting [2].

As to DWGRTALHYAAASDMDRNKTILGN [ANKRD44], the protein stability index under setting [1] came to 3.35 ± 0.32 and the protein stability index under setting [2] was determined as 3.35 ± 0.17.

Take DYLCISFEYSTIKCRDLSALMHEL [BTBD10]: the protein stability index by setting is: under setting [1], 2.5 ± 1.6; under setting [2], 2.73 ± 1.

Turning to DYRMELAQAGTPAPTKPHDYRQEQ [SPAG8], the protein stability index came out at 5.11 ± 0.088 under setting [1] and 5.16 ± 0.14 under setting [2].

EAEEEKGEKEEEDKDDEEKPKIED [HSP90AB1]: the protein stability index reads like this: under setting [1], 5.55 ± 0.35; under setting [2], 5.6 ± 0.38.

Turning to EALVNRLWKRMDKLEAEKRILQEK [CCDC6], the protein stability index by setting is: under setting [1], 2.93 ± 0.08; under setting [2], 3.6 ± 0.24.

These data come from the supplement of paper PMC10567573.
